Assay results from article PMC6344896, “HuR biological function involves RRM3-mediated dimerization and RNA binding by all three RRMs” (Nucleic Acids Research, 2018).

Molecular target: the molecule itself
Assay: SAXS; concentration series in solution without RNA (Trx-RRM3 1.25–10 mg/ml; untagged full-length HuR WT and W261E, lowest 0.5 mg/ml); molecular weights from the Porod volume

B1: Trx-RRM3 (HuR RRM3 fused to the C-terminus of E. coli thioredoxin 1 via a GSAM linker) (domain or fragment, human, UniProt Q15717-1 243-326, looked up)
chain: GWCIFIYNLGQDADEGILWQMFGPFGAVTNVKVIRDFNTNKCKGFGFVTMTNYEEAAMAIASLNGYRLGDKILQVSFKTNKSHK
notes: Human HuR/ELAVL1 (NP_001410.2), third RNA recognition motif; Chain order: E. coli thioredoxin 1, Gly-Ser-Ala-Met, RRM3; Thioredoxin structure 2TRX was used for molecular replacement; also called RRM3-Trx; Trx-RRM3 fusion protein; source: E. coli BL21(DE3), purified; not shown: Trx (E. coli thioredoxin 1, uncleavable GSAM linker), N-terminal, kept
  stoichiometry N: 2
